Laboratory results published in US20060282909A1 (published 2006).

T1: NF-AT3 full length (NFATC4) (UniProt Q14934)
T1 sequence: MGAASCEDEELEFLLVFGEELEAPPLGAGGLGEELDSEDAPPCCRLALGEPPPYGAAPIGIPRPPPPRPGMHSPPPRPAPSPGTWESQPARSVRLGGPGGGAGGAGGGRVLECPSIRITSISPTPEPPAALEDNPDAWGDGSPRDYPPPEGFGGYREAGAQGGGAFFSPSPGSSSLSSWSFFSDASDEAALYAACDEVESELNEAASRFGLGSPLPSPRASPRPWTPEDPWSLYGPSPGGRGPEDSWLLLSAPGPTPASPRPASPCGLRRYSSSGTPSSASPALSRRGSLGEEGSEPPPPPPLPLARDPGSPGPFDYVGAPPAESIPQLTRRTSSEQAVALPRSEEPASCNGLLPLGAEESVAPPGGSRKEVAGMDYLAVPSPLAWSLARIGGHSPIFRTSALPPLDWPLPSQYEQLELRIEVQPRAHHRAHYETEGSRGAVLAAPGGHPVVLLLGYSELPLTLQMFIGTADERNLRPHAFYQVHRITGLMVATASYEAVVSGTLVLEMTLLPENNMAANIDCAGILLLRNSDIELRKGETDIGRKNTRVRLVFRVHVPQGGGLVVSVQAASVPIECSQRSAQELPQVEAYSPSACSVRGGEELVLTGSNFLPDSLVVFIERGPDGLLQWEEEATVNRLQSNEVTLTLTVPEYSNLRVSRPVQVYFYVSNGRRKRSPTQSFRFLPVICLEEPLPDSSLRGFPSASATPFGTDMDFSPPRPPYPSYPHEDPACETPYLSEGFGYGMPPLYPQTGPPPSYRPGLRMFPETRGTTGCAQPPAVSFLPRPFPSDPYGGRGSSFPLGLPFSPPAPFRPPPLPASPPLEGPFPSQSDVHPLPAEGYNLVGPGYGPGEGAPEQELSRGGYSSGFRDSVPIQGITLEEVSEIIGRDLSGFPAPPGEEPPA


Tests used:
[1] = biological target: T1, NF-AT3 full length (NFATC4); assay: cell_activity; conditions: CAT reporter activation with GATA4, NF-AT3 and activated calcineurin together in rat cardiomyocytes
full-length GATA4 = full-length GATA4 (UniProt Q08369 1-441, limits assumed); assay: cell-based or functional assay
Chain of full-length GATA4 (Q08369 whole entry): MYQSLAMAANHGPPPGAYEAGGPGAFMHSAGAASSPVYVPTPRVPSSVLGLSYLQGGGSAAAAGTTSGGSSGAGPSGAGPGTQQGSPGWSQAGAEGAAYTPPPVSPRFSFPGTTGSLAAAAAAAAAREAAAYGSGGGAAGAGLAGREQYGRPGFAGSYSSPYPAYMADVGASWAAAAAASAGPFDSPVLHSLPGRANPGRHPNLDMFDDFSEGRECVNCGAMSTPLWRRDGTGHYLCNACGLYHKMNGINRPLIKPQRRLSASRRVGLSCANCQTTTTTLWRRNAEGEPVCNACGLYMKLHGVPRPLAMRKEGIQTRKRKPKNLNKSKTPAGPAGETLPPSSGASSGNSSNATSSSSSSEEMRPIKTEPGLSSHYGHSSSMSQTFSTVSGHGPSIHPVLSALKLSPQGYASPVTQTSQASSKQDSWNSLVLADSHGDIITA

| activation of the BNP promoter (CAT reporter) in transfected neonatal rat cardiomyocytes (full-length GATA4) [fold] | Molecule | activity [1] [fold] |
| --- | --- | --- |
|  | BNP promoter 1800 bp | > 100 |
| > 100 | full length NF-AT3 (other) MGAASCEDEELEFLLVFGEELEAPPLGAGGLGEELDSEDAPPCCRLALGEPPPYGAAPIGIPRPPPPRPGMHSPPPRPAPSPGTWESQPARSVRLGGPGGGAGGAGGGRVLECPSIRITSISPTPEPPAALEDNPDAWGDGSPRDYPPPEGFGGYREAGAQGGGAFFSPSPGSSSLSSWSFFSDASDEAALYAACDEVESELNEAASRFGLGSPLPSPRASPRPWTPEDPWSLYGPSPGGRGPEDSWLLLSAPGPTPASPRPASPCGLRRYSSSGTPSSASPALSRRGSLGEEGSEPPPPPPLPLARDPGSPGPFDYVGAPPAESIPQLTRRTSSEQAVALPRSEEPASCNGLLPLGAEESVAPPGGSRKEVAGMDYLAVPSPLAWSLARIGGHSPIFRTSALPPLDWPLPSQYEQLELRIEVQPRAHHRAHYETEGSRGAVLAAPGGHPVVLLLGYSELPLTLQMFIGTADERNLRPHAFYQVHRITGLMVATASYEAVVSGTLVLEMTLLPENNMAANIDCAGILLLRNSDIELRKGETDIGRKNTRVRLVFRVHVPQGGGLVVSVQAASVPIECSQRSAQELPQVEAYSPSACSVRGGEELVLTGSNFLPDSLVVFIERGPDGLLQWEEEATVNRLQSNEVTLTLTVPEYSNLRVSRPVQVYFYVSNGRRKRSPTQSFRFLPVICLEEPLPDSSLRGFPSASATPFGTDMDFSPPRPPYPSYPHEDPACETPYLSEGFGYGMPPLYPQTGPPPSYRPGLRMFPETRGTTGCAQPPAVSFLPRPFPSDPYGGRGSSFPLGLPFSPPAPFRPPPLPASPPLEGPFPSQSDVHPLPAEGYNLVGPGYGPGEGAPEQELSRGGYSSGFRDSVPIQGITLEEVSEIIGRDLSGFPAPPGEEPPA |  |
